In publication PMC12079668 (2025):
Residue numbers refer to the chain shown, from its start. Each block holds one binder with its values, some of them ahead of it.

Experiments:
Experiment in all cases: ITC
[1] = target: T1, full-length mouse Cavin1, His-MBP-tagged (mouse, UniProt O54724 1-392)
T1 chain: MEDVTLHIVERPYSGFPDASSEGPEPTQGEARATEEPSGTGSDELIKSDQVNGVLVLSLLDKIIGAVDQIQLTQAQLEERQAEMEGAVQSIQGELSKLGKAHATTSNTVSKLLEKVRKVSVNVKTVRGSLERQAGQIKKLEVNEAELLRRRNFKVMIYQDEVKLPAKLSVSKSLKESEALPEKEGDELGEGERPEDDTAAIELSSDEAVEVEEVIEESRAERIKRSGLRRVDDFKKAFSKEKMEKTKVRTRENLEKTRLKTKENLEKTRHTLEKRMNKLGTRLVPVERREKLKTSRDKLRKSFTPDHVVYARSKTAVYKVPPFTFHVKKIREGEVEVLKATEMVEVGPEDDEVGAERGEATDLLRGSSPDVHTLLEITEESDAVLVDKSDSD

[2] = target: T2, mouse Cavin1 HR1 domain (residues 45–155), His-Ub-tagged (mouse, UniProt O54724 45-155)
T2 chain: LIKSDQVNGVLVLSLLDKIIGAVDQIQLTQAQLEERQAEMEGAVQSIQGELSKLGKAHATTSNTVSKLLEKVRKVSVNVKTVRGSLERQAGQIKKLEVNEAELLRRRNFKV

[3] = target: T3, mouse Cavin1 HR1 domain 5Q mutant (mouse, UniProt O54724 45-155, Lys115 to glutamine | Arg117 to glutamine | Lys118 to glutamine | Lys124 to …)
T3 sequence: T2 chain with K71Q, R73Q, K74Q, K80Q, R83Q

[4] = target: T4, N-terminal fragment of mouse Cavin1 HR1 domain (residues 45–103) (mouse, UniProt O54724 45-103)
T4 chain: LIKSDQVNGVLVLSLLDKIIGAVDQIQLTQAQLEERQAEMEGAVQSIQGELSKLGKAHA

Kd [1]: 8880 nM | Kd [2]: 500 nM | Kd [3]: 143 nM | Kd [4]: 555 nM
B1: nanobody NbA12 (VHH)
VHH: QVQLQESGGGLVQAGGSLRLSCAASGFTFDDYAIGWFRQAPGKEREGVSCITSSDGSTYYADSVKGRFTISSDNAKNTVYLQMNSLKPEDTAVYYCAAESWPPLCHYSGMDYWGKGTQVTVSS

Kd [1]: 1730 nM | Kd [4]: 451 nM
B2: nanobody NbB7 (VHH)
VHH: QVQLQESGGGLVQAGGSLRLSCAVSGIRVNVNAMYWYRQAPGKQRELVAIITTFGSTNYADSAKGRFTISRDNTKNTVYLQMDNLKPEDTAVYYCNAPQFTDRYWGQGTQVTVSS
